Experimental data as given in the supplement of paper PMC10567573.
± gives the standard deviation.

Experiment: protein stability index of a GFP-peptide fusion (GPS, HEK-293T) (PSI 1-6); higher = more stable
[1] = treatment: DMSO, c terminus: a fixed tail appended
[2] = treatment: MLN4924 1 uM, 8 h, c terminus: a fixed tail appended
[3] = treatment: DMSO, c terminus: native
[4] = treatment: MLN4924 1 uM, 8 h, c terminus: native
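Further: 24-mer peptide tiles fused after GFP, lentivirally expressed, FACS-sorted into six equal bins by GFP/DsRed ratio, decoded by Illumina sequencing, PSI is the read-weighted mean bin number.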

| Sequence | protein stability index [1] | protein stability index [2] | protein stability index [3] | protein stability index [4] |
| --- | --- | --- | --- | --- |
| LICEGLYPASIVDEPTFKVLLKTA [ZBED1] | 2.25 ± 0.28 | 2.31 ± 0.24 |  |  |
| HLYAEPQKSPWCEARSLEHTLPVN [ESR2] | 2.93 ± 0.23 | 3.38 ± 0.24 |  |  |
| GVYSMPAGTKVFEVPEMSPVTCCD [TLE6] | 3.84 ± 0.33 | 3.45 ± 0.24 |  |  |
| VRRSSRKSKAELQSEERKRIDELI [KMT5A] | 4.62 ± 0.48 | 4.51 ± 0.39 |  |  |
| LNQKGTAVETEGSGSRHPPWARGC [SLC2A12] | 3.98 ± 0.29 | 4.08 ± 0.38 |  |  |
| EFQPAKCTDKENALKLFPVQPCSA [FAM189A2] | 3.97 ± 0.17 | 4.03 ± 0.51 |  |  |
| HRDMKPDNILLDEHDTWLSYKSH [STK32A] |  |  | 3.68 ± 0.27 | 3.94 ± 0.27 |
| ISENRKRQWPTKSQTDRGASAGKR [SDE2] | 4.7 ± 0.28 | 4.94 ± 0.073 |  |  |
| NPNLSNRRGSTPLHMAVERRVRGV [RIPK4] | 3.84 ± 0.56 | 4.47 ± 0.65 |  |  |
| LPIFTPAKMGATKEEREDTPIQLQ [TCAP] | 4.7 ± 0.089 | 4.72 ± 0.088 |  |  |
| SVGCIFAEMFRRKPLFCGNSEADQ [CDK4] | 2.37 ± 0.2 | 2.58 ± 0.23 |  |  |
| KPTVFIGVPQIWEKIHEMVKKNSA [ACSBG2] | 2.75 ± 0.34 | 2.47 ± 0.81 |  |  |
| VDGRATQKLIVNLKPEKSYSFVLT [PTPRD] | 2.4 ± 0.51 | 2.37 ± 0.66 |  |  |
| DITRYYLCLQLRDDIVSGRLPCSF [EPB41L3] | 2.97 ± 0.57 | 2.63 ± 0.5 |  |  |
| LLLSILNPTRQDESIQRIAVHLCN [ZER1] | 2.75 ± 0.42 | 2.42 ± 0.45 |  |  |
| HYFHSISYKIEEISPSTLKNSLFP [KCNK9] | 2.17 ± 0.28 | 2.18 ± 0.18 |  |  |
| APDLVLNAEMVQQTTYLEDRPMFM [LOXL2] | 3.25 ± 0.18 | 3.43 ± 0.17 |  |  |
| GKAYGWCSELIRHRRVHARKEPSH [ZNF232] | 3.23 ± 0.17 | 3.26 ± 0.38 |  |  |
| QGLFFDMEAYLPKKNGLYLSLVLG [TMEM120A] | 2.67 ± 0.42 | 2.62 ± 0.23 |  |  |
| LAEWEANPLICPVCTKYNLRITSG [RPAIN] | 3.35 ± 0.36 | 3.31 ± 0.36 |  |  |
| RKLSQGILIIRFEMPYNIWCDGCK [YJU2B] | 2.57 ± 0.62 | 3.3 ± 0.79 |  |  |
| GGLLSYDEGGITKQPPVTQSKTAS [FBF1] | 4.96 ± 0.18 | 4.89 ± 0.33 |  |  |
| PFAPEPTPPTTTAEIATASASAST [SNAP91] | 5.37 ± 0.16 | 5.41 ± 0.14 |  |  |

| Sequence | protein stability index [1] | protein stability index [2] | protein stability index [3] | protein stability index [4] |
| --- | --- | --- | --- | --- |
| REDNSGSDVLIGDILVLLGASLYA [SLC35F2] | 2.79 ± 0.18 | 2.99 ± 0.61 |  |  |
| INRCSVLRQLGCKDGKNWNSNQAT [SPOPL] | 2.65 ± 0.28 | 2.78 ± 0.28 |  |  |
| GFSCNQGRYPLIQTLRQELSLPYL [CHIT1] | 2.16 ± 0.33 | 2.4 ± 0.24 |  |  |
| VDNIDMIDGDGDDMERFMEEMREL [BEX5] | 5.27 ± 0.41 | 5.26 ± 0.21 |  |  |
| KRGGNCPAPAPLVPQDPDLEEEEE [ZBTB22] | 5.56 ± 0.26 | 5.59 ± 0.21 |  |  |
| RAMRYYYKREILERVDGRRLVYKF [ELF3] | 2.49 ± 0.15 | 2.63 ± 0.41 |  |  |
| QSVENCPEDLAQLEELIDMAVLEE [RPAIN] | 5.27 ± 0.15 | 5.27 ± 0.21 |  |  |
| KSKSITNLAAAAADIPQDQLVVMH [BTBD10] | 4.43 ± 0.34 | 4.64 ± 0.4 |  |  |
| KRKGIKSSIGRLFGKKEKGRLIQL [PPFIA4] | 2.46 ± 0.31 | 2.22 ± 0.22 |  |  |
| MITVQLPEVPANENIKGYYIIIVP [PTPRD] | 3 ± 0.77 | 2.99 ± 0.62 |  |  |
| LPFGPFNGTAWTYHSQDELGGFSH [PKD2L1] | 2.41 ± 0.13 | 2.58 ± 0.18 |  |  |
| LYPNPRERSSFYSCAGGRLFQQSC [CHIT1] | 1.94 ± 0.21 | 2.37 ± 0.43 |  |  |
| HITKLKPWSLFDVLVEKYGWPHED [SRPK2] | 2.23 ± 0.33 | 2.38 ± 0.11 |  |  |
| CPQSLPCFEASDCKESSPMPVICG [NANOGP8] | 3.77 ± 0.18 | 3.89 ± 0.083 |  |  |
| QVSPVRRAPSRRHGVRAKVQPQAR [CPN1] | 4.88 ± 0.12 | 4.68 ± 0.13 |  |  |
| MSDRRENDMSPSNNVVPIHVPPTT [RAB11A] | 4.67 ± 0.17 | 4.87 ± 0.12 |  |  |
| IQDVVQPLTLQVQRPLVSVTVSDA [AUP1] | 3.56 ± 0.28 | 3.58 ± 0.22 |  |  |
| KKDNHALVRETDELRRNHCFQDFK [ELOA2] | 4.11 ± 0.31 | 4.03 ± 0.3 |  |  |
| QSLTEDLEFRKSMYEEEINETRRK [LMNB1] | 4.99 ± 0.26 | 5.04 ± 0.18 |  |  |
| DSRRIFVGQDNGAVMEFHVSEDFN [WDFY1] | 4.07 ± 0.32 | 4.22 ± 0.11 |  |  |
| EKQMEEKRRANQKSSAQGPIPWFL [PPEF2] | 3.71 ± 0.17 | 3.68 ± 0.32 |  |  |
| TRWCHIVRDSDSLAESEFESAAFS [PHTF1] | 3.45 ± 0.054 | 3.33 ± 0.29 |  |  |
| FLTTAIRPHGIFGPRDPQLVPILI [NSDHL] | 2.69 ± 0.53 | 2.42 ± 0.41 |  |  |

| Sequence | protein stability index [1] | protein stability index [2] | protein stability index [3] | protein stability index [4] |
| --- | --- | --- | --- | --- |
| FSSYNKQDNNCHFDAALVSFINFF [SLC6A17] | 2.81 ± 0.39 | 2.64 ± 0.41 |  |  |
| SSEKLNLQKDLETRPTQHELRLYK [CEP70] | 4.12 ± 0.16 | 4.1 ± 0.36 |  |  |
| LSGASPFLGETKQETLTNISAVNY [DAPK3] | 3.73 ± 0.2 | 3.85 ± 0.25 |  |  |
| QTVDGKHQDLKYISPETMVALLTG [CDC25B] | 2.77 ± 0.43 | 2.8 ± 0.33 |  |  |
| PSLSPGAFSYSSSSRFSSSRLLGS [PRPH] | 3.29 ± 0.23 | 3.28 ± 0.16 |  |  |
| AAPGALGSLHAGGARLVAACSAWL [AUH] | 2.65 ± 0.047 | 2.39 ± 0.34 |  |  |
| EEHLSPLDFLHSANFSLGSINQRL [RNF180] | 3.17 ± 0.38 | 3.41 ± 0.24 |  |  |
| VSGCPEDLTVGRAPTADDDDDDHD [NOL4L] | 5.62 ± 0.31 | 5.63 ± 0.28 |  |  |
| NAFQETWYWHGDVNSNKVVMSGVK [LOXL2] | 2.75 ± 0.31 | 2.84 ± 0.48 |  |  |
| CNECGKAFRWGAHLVQHQRIHSGE [ZNF232] | 4.44 ± 0.56 | 4.53 ± 0.26 |  |  |
| SKAAAGKMNLYESFAQATQLGDLH [INTS3] | 3.63 ± 0.25 | 3.58 ± 0.23 |  |  |
| PLSWAPCGPIAGSRQALSFEVPPC | 3.21 ± 0.29 | 3.07 ± 0.19 |  |  |
| NRRLRALEEQGATWRHRETLIIAV [FATE1] | 2.46 ± 0.39 | 2.22 ± 0.15 |  |  |
| DVHHGNGTQHMFEDDPSVLYVSLH [HDAC6] | 2.97 ± 0.34 | 2.93 ± 0.31 |  |  |
| WLPESDCETVTCCLFSERDAAGAP [SMAD6] | 3.72 ± 0.58 | 3.96 ± 0.27 |  |  |
| GGFGGGVGGGFGGGFGGGDGGLLS [KRT15] | 3.4 ± 0.71 | 3.98 ± 0.14 |  |  |
| RKQARQLENELDLKLVSFSKLCTS [GOSR1] | 3.03 ± 0.34 | 3.22 ± 0.54 |  |  |
| EIFVDCDINREQLNDIFHLLKSHT [TPH1] | 2.19 ± 0.3 | 2.19 ± 0.35 |  |  |
| SMQEDEQSGRDLQQYQSQAKQLFR [SEC22B] | 4.22 ± 0.17 | 4.35 ± 0.19 |  |  |
| DFHYCDREHVCRKDQRNPPSLGRV [RBMY1A1] | 3.27 ± 0.27 | 3.8 ± 0.4 |  |  |
| LKLVAHPRAKSKVWKYFGFDTNAE [ZBED1] | 2.23 ± 0.39 | 2.25 ± 0.26 |  |  |
| PLTSTQGLEHAAAGGSSGTTARER [FBF1] | 5.36 ± 0.24 | 5.33 ± 0.3 |  |  |
| GATYLELHSLDDFYIGKYFGGVLE [RHOBTB3] | 2.6 ± 0.61 | 2.32 ± 0.23 |  |  |

| Sequence | protein stability index [1] | protein stability index [2] | protein stability index [3] | protein stability index [4] |
| --- | --- | --- | --- | --- |
| NIAIMTEEPELSPAYLISEAMRRS [GFOD1] | 3.5 ± 0.27 | 3.72 ± 0.2 |  |  |
| QRIALRLGNGNDKKEMNKSDLNTN [KMT2E] | 4.78 ± 0.12 | 4.47 ± 0.28 |  |  |
| GPVGTDFKPLNSTPATTTEPPKPT [ZNF207] | 5.24 ± 0.21 | 5.19 ± 0.23 |  |  |
| VQEVMEEEWNALQSVENCPEDLAQ [RPAIN] | 5.51 ± 0.21 | 5.48 ± 0.089 |  |  |
| HVLPAVLAEVAPVVTTEHILVSVA [PYCR3] | 2.65 ± 0.63 | 2.8 ± 0.72 |  |  |
| RERIERVRRIHIKRPDDRAHLHQ [KCTD10] |  |  | 4.2 ± 0.36 | 4.51 ± 0.35 |
| TTTHAPPGVHRRYSALREESAKDW [PPFIA4] | 4.23 ± 0.3 | 4.47 ± 0.15 |  |  |
| ELLCCTNVSTKEGIHLALVELLKN [INTS4] | 2.19 ± 0.74 | 2.4 ± 0.41 |  |  |
| LPKELPADAVNLTIPASLDLSPLL [PLAGL1] | 3.32 ± 0.19 | 3.48 ± 0.28 |  |  |
| GLRAATMSAVEAATCRAKELSRK [PYCR3] |  |  | 5.1 ± 0.95 | 4.97 ± 0.18 |
| LLPKGSKEEQRDYVFYLAVGNYRL [FIS1] | 2.63 ± 0.56 | 2.15 ± 0.063 |  |  |
| PLAVENQAGGEGAGGELGISLNMC [PBXIP1] | 4.22 ± 0.25 | 4.12 ± 0.24 |  |  |
| CVPAHPPPCAWACPVPAHRRGSWR [CTBP1-DT] | 2.56 ± 0.19 | 2.77 ± 0.18 |  |  |
| SPAKASQASKLRASKEEKEDWLSH [FBF1] | 4.92 ± 0.37 | 4.92 ± 0.3 |  |  |
| LRFLHENQLTHTDLKPENILFVNS [CLK3] | 2.49 ± 0.23 | 2.86 ± 0.36 |  |  |
| DYSHRQKEQDVEKELRDGGEQDTW [NFE2L1] | 5.63 ± 0.5 | 5.46 ± 0.44 |  |  |
| APVILVGCQLDLRYADLEAVNRAR [RHOBTB2] | 2.57 ± 0.17 | 2.45 ± 0.21 |  |  |
| KEDNSLLNQGFLQAKPEKAAVAQK [MYBL2] | 5.26 ± 0.12 | 5.14 ± 0.56 |  |  |
| RPATAADCSDILRLIKELAKYEYM [SAT1] | 2.06 ± 0.14 | 2.48 ± 0.18 |  |  |
| ITFSGRPSRVHASEVESAVWYVKK [FBXO39] | 2.41 ± 0.21 | 2.68 ± 0.32 |  |  |
